The Human Domainome abundance scans (Beltran et al. 2025)

B1: CD2-associated protein, residues 271 to 331; numbered along this chain, Q9Y5K6 (parent)
chain: KEYCRTLFAYEGTNEDELTFKEGEIIHLISKETGEAGWWRGELNGKEGVFPDNFAVQINEL

Variants of: B1
Assay: abundance fitness (aPCA) (normalised: wild type 0, dead -1); higher = more abundant; growth selection in yeast, the domain comes from the species named
Conditions: Homo sapiens

Abundance fitness of substitutions, site by site:
I25: Q -0.234; R -0.372; S -0.448; T -0.175; V -0.083; W -0.75
I26: A -0.82; C -0.46; D -0.7; E -0.725; G -0.856; H -0.537; L -0.214; M -0.555; P -0.803; Q -0.734; R -0.829; S -0.76; T -0.605; V -0.153; W -0.599
H27: A -0.005; C 0.013; D -0.335; E 0.093; F -0.26; G -0.09; I -0.297; K 0.031; L -0.079; N -0.165; P -0.428; Q -0.021; S -0.083; T 0.04; V -0.03; W -0.276; Y -0.126
L28: A -0.812; C -0.676; D -0.82; E -0.738; G -0.778; H -0.623; I -0.068; K -0.503; M -0.482; N -0.59; P -0.614; Q -0.913; R -0.706; S -0.712; T -0.441; V -0.005; W -0.871; Y -0.702
I29: A -0.672; C -0.561; D -0.668; E -0.705; F -0.628; G -0.713; H -0.56; K -0.26; L -0.006; M -0.185; N -0.433; P -0.524; Q -0.494; S -0.463; T -0.215; V -0.047; W -1.05; Y -0.755
S30: A -0.129; C -0.365; D -0.2; F -0.967; G -0.328; L -0.859; N -0.152; P -0.71; Q -0.36; R -0.419; T 0.023; V -0.709; W -0.957
K31: A -0.635; C -0.562; D -0.717; E -0.111; F -0.848; G -0.522; I -0.672; L -0.476; M -0.013; N -0.575; P -0.703; Q -0.52; R 0.017; S -0.571; T -0.024; V -0.313; W -0.862; Y -0.634
E32: C -0.164; D -0.003; G -0.261; H -0.202; I -0.18; K -0.044; L -0.481; M -0.307; N 0.085; P -0.553; Q -0.139; R -0.222; S -0.091; T -0.111; V -0.152; W -0.116; Y -0.167
T33: A -0.198; C -0.163; D -0.282; E -0.471; F -0.32; G -0.076; H -0.209; I -0.099; K -0.332; L -0.349; M -0.468; N -0.333; P -0.242; Q -0.451; R -0.473; S -0.097; V -0.129; W -0.331; Y -0.222
G34: A -0.216; C -0.064; D -0.031; E -0.155; F -0.491; I -0.66; K 0.048; L -0.477; M -0.423; N -0.426; P -0.181; R -0.26; S -0.014; T -0.086; V -0.368; W -0.712; Y -0.628
E35: A 0.055; C -0.027; D 0.02; G -0.125; H -0.078; I 0.119; K 0.069; L -0.035; M -0.028
